The source of these data is patent publication US10308973B1, “Real-time imaging method of NAPDH-dependent metabolic activity in cell and use thereof” (INDUSTRY FOUNDATION OF CHONNAM NATIONAL UNIVERSITY, priority 2018, dated 2019).

For data set [1], the system named is mBFP-transformed animal cells. The data set can be described thus: NADPH imaging of mBFP-transformed animal cells treated with NADPH dehydrogenase inhibitors. The settings on record: compared among the inhibitors of Table 3. Format: cell-based. The protocol: The mBFP-transformed animal cells were cultured and treated with NADPH dehydrogenase inhibitors shown in Table 3, respectively, and the amount of change in NADPH was measured.

In data set [2] the test system is recombinant animal cells (HeLa cell). The data set can be described thus: Two-photon fluorescence imaging of mBFP-expressing animal cells after oxidant treatment. It is filed as cell-based. The settings on record: 40 μM diamide; glucose-free medium; images every second. The protocol: The recombinant animal cells produced in the Examples above were treated with diamide, which is an oxidant, to reduce the amount of NADPH in the cells, and the change in fluorescence was observed as follows. First, before observing the recombinant animal cells, the medium was replaced with a culture medium from which glucose was removed to prevent continuous overproduction of NADPH, and the cells were cultured for 1 hour and images thereof were observed. After treatment with 40 μM diamide, fluorescence images were taken every second using a real-time image measurement method using a two-photon microscopy.

Data set [3] can be described thus: Benzaldehyde reductase activity of mBFP purified from transformed cells. It is filed as biochemical. The settings on record: benzaldehyde reaction solution. The protocol:
The cultured cells were disrupted, recovered, and purified using the His-tag as follows.
The cell supernatant disrupted with phosphate buffered saline (PBS) was injected into and passed through Ni-NTA Spin Columns (Qiagen), and washed with wash buffer (PBS, 10 mM imidazole). Then, the mBFP protein was recovered with the elution buffer (PBS, 100 mM imidazole).
In order to confirm whether the mBFP protein had activity as a reductase through mutation, the reductase activity of mBFP was measured using the reaction solution for measuring the benzaldehyde reductase activity of Example 1 above.

Data set [4] can be described thus: Enzyme activity (aldehyde dehydrogenase) of purified mutant mBFP. It is filed as biochemical. The settings on record: purified protein. The protocol: In order to measure benzaldehyde dehydrogenase activity, a reaction solution of pH 7.5 in which 100 mM Tris, 100 mM sodium chloride, 0.05% Triton X-100, […] and added at an amount of 10 μL per well containing 90 μL of cultured cells, and reacted for 10 minutes. The change in fluorescence value was measured by the fluorescence reader to measure the amount of NADPH consumed by the activity of mBFP mutant enzyme.
In order to measure the enzyme activity of the short-chain dehydrogenase/reductase family (SDR family) of the purified mutant mBFP, a reaction solution (100 mM Tris, 100 mM sodium chloride, 0.05% Triton X-100, 0.5 mM benzaldehyde, 0.5 mM NADPH, pH 7.5) for measuring aldehyde dehydrogenase was added at an amount of 10 μL to each well to which the protein was added, and reacted for 10 minutes, and then the amount of reduced NADPH was measured using a fluorescent reader.

Regarding `NC(=O)c1ccc(N)nc1` [6-ANA, 6-Aminonicotinamide], the “difference of fluorescence intensity due to mBFP after inhibitor treatment” value in data set [1] was “the largest”.
Same read-out and setting: the value for `C[C@]12CC[C@H](O)CC1=CC[C@@H]1[C@@H]2CC[C@]2(C)C(=O)CC[C@@H]12` [DHEA, Dehydroepiandrosterone] was “the largest”.
For `CN(C)C(=O)/N=N/C(=O)N(C)C` [diamide], the “fluorescence intensity after oxidant treatment” value in data set [2] was “rapidly decreased”.

B1: Wild type: wild-type metagenome-derived blue fluorescent protein, SEQ ID NO: 6, GenBank Accession No. AF485783 (protein)
chain: MQNLNGKVAFVTGGSRGIGAAIVRRLAADGADIAFTYVSASSKNVATALVQELEAKGRRARAIQADSADPAQVRQAVEQAIVQLGPVDVLVNNAGIFLAGPLGEVTLDDYERTMNINVRAPFVAIQAAQASMPDGGRIINIGSCLAERAGRAGVTLYAASKSALLGMTRGLARDLGARGITANVVHPGPIDTDMNPADGERSGELVAVLSLPHYGEVRDIAGMVAFLAGPDGRYVTGASLAVDGGFAA
modifications: BFP wild type Y157 w/o his-tag
In the case of B1, the “reductase activity (in words)” value in data set [3] is on record as “exhibited the reductase activity”. Moreover, the “Enzyme activity of mutant mBFP, Acetaldehyde” value in data set [4] (substrate acetaldehyde) is given as 10.34 ± 0.24 U mg^−1. The “Enzyme activity of mutant mBFP, Benzaldehyde” value in data set [4] (substrate benzaldehyde) was determined as 6.41 ± 0.34 U mg^−1. For the same molecule, the “Enzyme activity of mutant mBFP, Hexanal” value in data set [4] (substrate hexanal) is listed as 4.34 ± 0.14 U mg^−1. Also, the “Enzyme activity of mutant mBFP, Pivaldehyde” value in data set [4] (substrate pivaldehyde) came to 14.43 ± 0.68 U mg^−1.
